According to PMC12365249:

Target: FOXA1 (UniProt P55317)
Experiment: endogenous co-IP with FOXA1 antibody
Conditions: reference: wild type; sites T603

- binding against the reference: stronger
Substance: MED15 (from UniProt Q96RN5) T603A knock-in
